# Source: PMC3526273, “A SUMO-interacting motif activates budding yeast ubiquitin ligase Rad18 towards SUMO-modified PCNA” (Nucleic Acids Research, 2012)
# Positions count from the first letter of the chain named. Names and notes keep the numbering of the source.
# T1: GSTPCNA (S. cerevisiae, UniProt P15873 1-258)
# T1 construct: PCNA of S. cerevisiae; not shown: GST, N-terminal, kept
# T1 sequence (looked up): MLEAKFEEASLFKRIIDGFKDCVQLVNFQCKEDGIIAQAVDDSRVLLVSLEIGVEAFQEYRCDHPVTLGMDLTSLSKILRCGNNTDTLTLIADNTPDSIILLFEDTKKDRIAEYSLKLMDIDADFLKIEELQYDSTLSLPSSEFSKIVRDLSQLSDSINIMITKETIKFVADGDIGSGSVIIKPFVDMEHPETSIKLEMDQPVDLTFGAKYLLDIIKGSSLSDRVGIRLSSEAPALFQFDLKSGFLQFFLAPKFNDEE
# B1: HisRad18(1-255) (domain or fragment, S. cerevisiae, UniProt P10862 1-255, looked up)
# chain: MDHQITTASDFTTTSIPSLYQLDTLLRCHICKDFLKVPVLTPCGHTFCSLCIRTHLNNQPNCPLCLFEFRESLLRSEFLVSEIIQSYTSLRSSLLDALRIPKPTPVPENEEVPGPENSSWIELISESESDSVNAADDDLQIVATSERKLAKRSMTDILPLSSKPSKRNFAMFRSERIKKKSKPNEQMAQCPICQQFYPLKALEKTHLDECLTLQSLGKKPKISTTFPTESNPHNKSSSRFKVRTPEVDKSSCGET
# notes: detected by anti-His western blot; not shown: His6, N-terminal, kept
# B2: HisRad18(1-255) SIM* (L139A, I141A, V142A) (domain or fragment, S. cerevisiae, UniProt P10862 1-255, looked up)
# chain: B1 chain with L139A, I141A, V142A
# notes: also called SIM* mutant; not shown: His6, N-terminal, kept
# Molecular target: T1, GSTPCNA
# Assay: pull-down; GST-tagged protein immobilised on glutathione Sepharose (1 h, 4°C), binding partner added for 90 min at 4°C in phosphate-buffered saline with 0.05% Triton X-100; three washes; anti-His western blot
# Conditions: both partners purified
binder,measurement,value
B1,binding result,binds
B2,binding result,binds
